Sequences and labels used below:
B1: DNA replication regulator DPB11 (Saccharomyces cerevisiae), P47027 (parent)
chain: MKPFQGITFCPTAINNEILAKKISKKIIKLGGIFSKDLTRQVNVLVVGSTTNTNKFKFAVKHRFDIIFIDIQAIDDIYQLWLSGENILPDSNTATMTGSTYEMLKILYRRFSFKYLHNFNIFIGRITDTNITSIDSLVRSIKKLGCSSYNYQNFVIKDTSSHNDDDDQGQNGQISIFVTDTLLGARVNAAIEQNIPIVHFKWILDCQKRSALLPYDPYYLLPNIKDLPYDSIGSNSCDCWDKINTTFPTNIDAQSSLQRQQSSSTLTPSLPKTSSLLNKFKPKGEKIWDKAMSLQQHSKTNFSVLGQSPLSINNKQEDLSDNSTLIFKNCAFIIHHIFPGNHRSILTKIVVQNGGKIETSYLSGIYDHSYYIIPSNKALDSFNDLPEIIDDNDGIVTEFFIERCLYYQKLLHPIDLWSKPFLSTIEFQVSSSSKLLHHEFSSSPFLNVTITGFSGVELLHLTKVLNLLKPMGINYVEYLNKSTDILLINLAALPSIPKTHPLWSNEFSDLFTQFCINNNNDDPGDNNRKDFQNNSILRNSMKRKIEYIKKFHSIPVVTPAFIFKLLSAASGENNEIFLNNIKWCIICPRGHKDDFKCKIKKPYYTSISSEKKYQNNDPKIDKTILLKRNNSSLSEHSMKDTKNELLQKIRETDSGRKKRSVSSSIMDVSSERQMPDTKRIKLESLPKNFVPKQIKRTTSWGTIMSENVPTEQPTAISNPEEIPRTEEVSHTQVTYGSIQDKKRTASLEKPMRRQTRNQTKELDS
partner: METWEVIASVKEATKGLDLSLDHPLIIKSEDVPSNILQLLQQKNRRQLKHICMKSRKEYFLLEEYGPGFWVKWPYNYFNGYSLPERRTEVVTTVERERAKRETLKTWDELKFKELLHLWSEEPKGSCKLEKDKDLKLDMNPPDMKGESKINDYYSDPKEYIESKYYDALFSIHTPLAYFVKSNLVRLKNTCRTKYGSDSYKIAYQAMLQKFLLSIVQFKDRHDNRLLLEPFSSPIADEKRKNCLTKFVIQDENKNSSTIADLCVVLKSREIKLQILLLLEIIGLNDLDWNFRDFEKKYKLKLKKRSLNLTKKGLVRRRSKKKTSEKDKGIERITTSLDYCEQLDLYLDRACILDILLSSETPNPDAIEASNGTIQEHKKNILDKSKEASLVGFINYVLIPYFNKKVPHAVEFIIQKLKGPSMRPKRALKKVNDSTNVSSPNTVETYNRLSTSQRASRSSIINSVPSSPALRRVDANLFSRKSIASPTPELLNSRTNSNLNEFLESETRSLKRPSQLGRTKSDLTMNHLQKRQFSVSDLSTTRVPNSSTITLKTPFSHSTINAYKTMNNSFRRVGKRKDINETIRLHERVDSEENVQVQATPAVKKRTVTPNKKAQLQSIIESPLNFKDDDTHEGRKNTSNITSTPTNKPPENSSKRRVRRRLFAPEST

From IntAct's records for PubMed 17167417 come the findings set out here.

The test covers variants of B1. The note with it: with sld3_yeast SLD3, P53135.
Turning to K55D;F56P, the “effect of a mutation on the interaction” value is given as “disrupting interaction strength”.
